# Assay results published in paper PMC7584627.
# Target: LuS-N71-SpyTag (Aquifex aeolicus)
# Test: SDS-PAGE of the covalent conjugate, band intensities
substance,measurement,value
SARS-CoV-2 spike-SpyCatcher,percent of nanoparticle subunit conjugated,91%
